The supplement of paper PMC10567573
± gives the standard deviation.

Experiment: protein stability index of a GFP-peptide fusion (GPS, HEK-293T) (PSI 1-6); higher = more stable
Conditions: c terminus: a fixed tail appended
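Note: 24-mer peptide tiles fused after GFP, lentivirally expressed, FACS-sorted into six equal bins by GFP/DsRed ratio, decoded by Illumina sequencing, PSI is the read-weighted mean bin number.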

| Sequence | protein stability index (treatment: DMSO) | protein stability index (treatment: MLN4924 1 uM, 8 h) |
| --- | --- | --- |
| HLRPELRSQMQGPRTRARLGANEV [KLHL12] | 4.23 ± 0.043 | 4.22 ± 0.44 |
| DLASAAAKQIMEETYKMEFMYSGV [INTS4] | 2.58 ± 0.52 | 2.5 ± 0.16 |
| KKSSRNIFSIVFVFFVCFVPYHIA [P2RY14] | 3.31 ± 1 | 3.53 ± 0.15 |
| ARIVEIYSRRLQVQERLTKQIAVA [GCH1] | 2.33 ± 0.37 | 2.37 ± 0.2 |
| LMAEGLLPAVKVFLDWLRTNPDLI [SMG5] | 2.57 ± 0.38 | 2.6 ± 0.56 |
| NSLITAPGEFSDASMSPDATKPSH [SMAD6] | 5.07 ± 0.21 | 5.23 ± 0.18 |
| ALYVQAPTVTIEGFLQALSLAVDK [TRIP13] | 2.09 ± 0.46 | 2.2 ± 0.17 |
| AQAIDFINRCSVLRQLGCKDGKNW [SPOPL] | 2.29 ± 0.24 | 2.58 ± 0.42 |
| INVGGIKYSLPWTTLDEFPLTRLG [KCNG1] | 2.17 ± 0.6 | 2.06 ± 0.13 |
| LVSPERAQPPDYTFPSGSGAHFPQ [PI4K2A] | 3.96 ± 0.3 | 4.13 ± 0.25 |
| ANLTPNVGGYFVDKFVATMYHYLQ [P3H4] | 2.38 ± 0.69 | 2.23 ± 0.32 |
| VNEKLPQREGTGKTVSLQIFSVLN [SMOC2] | 2.7 ± 0.37 | 2.84 ± 0.4 |
| MLCAASGNPDPEITWFKDFLPVDT [PTPRD] | 2.95 ± 0.66 | 3.23 ± 0.42 |
| ISCVERGWSTPPKCRSTISAEKCG [CFHR2] | 2.88 ± 0.14 | 3.09 ± 0.32 |
| QQQIHHIKNLYAFNLFCQKRFDES [VPS39] | 2.29 ± 0.11 | 2.42 ± 0.15 |
| RGGDGEVASAPLQPPVPSLSEVKP [TRADD] | 5.34 ± 0.36 | 5.04 ± 0.58 |
| SADRLTVRCGLLGSLGPVPVLRFD [TRIM14] | 2.12 ± 0.31 | 2.25 ± 0.31 |
| DTYDSVYLHPNSYSCACLASGSVL [HDAC6] | 2.21 ± 0.15 | 2.3 ± 0.25 |

| Sequence | protein stability index (treatment: DMSO) | protein stability index (treatment: MLN4924 1 uM, 8 h) |
| --- | --- | --- |
| EFPEARIFEETLNILIYETPRGPD [KCTD13] | 2.48 ± 0.15 | 2.5 ± 0.44 |
| ECGKAFSQSSYLSQHRRIHSGEKP [ZNF232] | 3.57 ± 0.28 | 3.61 ± 0.15 |
| VKAEPFIKWLKEAEEESSGGEEED [EIF5] | 5.3 ± 0.28 | 5.4 ± 0.15 |
| SSWDIDGRATKRRKKSGDLKKAKV [FBXO34] | 4.8 ± 0.29 | 4.79 ± 0.11 |
| CIVSPDRPGVQDAALIEAIQDRLS [VDR] | 3.55 ± 0.14 | 3.65 ± 0.25 |
| HVLHHGTGKWYELQDLQVTDILPQ [USP39] | 2.82 ± 0.4 | 2.95 ± 0.39 |
| GDFDFDEVKFPNASDMFRRLRDAG [MYORG] | 3.98 ± 0.16 | 3.98 ± 0.2 |
| PVGSCCSSPAGLSREYKLVMLGAG [RIT1] | 2.54 ± 0.44 | 2.24 ± 0.35 |
| HQRTHSEEETYKCLECGKSFCHGS [ZNF449] | 4.63 ± 0.3 | 4.59 ± 0.3 |
| EKKGLHEKALQVLVDQSKKANSPL [VPS39] | 4.65 ± 0.21 | 4.67 ± 0.18 |
| QAHELAYDPNYMSPFAQFACDNGL [PPTC7] | 3.32 ± 0.12 | 3.13 ± 0.41 |
| PKELSSFSFSMKGHEKTAKSKTRS [DLC1] | 4.73 ± 0.31 | 4.78 ± 0.21 |
| TFFEVSPLCNFNITESFTELARIV [RAB40B] | 2.24 ± 0.51 | 2.14 ± 0.16 |
| TPTSLSSLSNAVANTMEHLSLLDN [FBXO33] | 4.44 ± 0.065 | 4.44 ± 0.21 |
| RGCLHSHGLQEGKDLFTQRQNSAP [CDC25A] | 3.72 ± 0.36 | 3.62 ± 0.33 |
| VVCASYEDYGHWLLCLRAVTHREG [PLEKHN1] | 2.52 ± 0.56 | 2.62 ± 0.49 |
| LKAKKVWYDMFRDAAAILLDEQNK [ZMAT5] | 2.38 ± 0.1 | 2.26 ± 0.17 |
| NKGTRFSEAWEYFHLAPARAGHHP [ZBED2] | 2.64 ± 0.16 | 2.96 ± 0.22 |
